We go through one substance from doi:10.1101/2021.04.14.439859.

What all share (assay): fluorescence polarisation
(In general: Fluorescence polarisation rises when a labelled molecule tumbles more slowly, as on binding a larger partner.)

Assay [1] concerns the target H2A-H2B (Alexa-488 H2B) (human) (UniProt P04908).
Assay [2] has as its target TLH3 nucleosome (human) (UniProt P04908).
The target in assay [3] is TLH4 nucleosome (human) (UniProt P04908).
Assay [4] concerns the target H3-H4 (Alexa-488 H4) (human) (UniProt P68431).

Broadly, the Kd is the equilibrium constant for the complex coming apart. Low readings indicate tighter binding, high ones weaker binding. For the substance “SMARCAD1 (from UniProt Q9H4L7 1-1026) (enzyme)”, the Kd in assay [1] was found to be 10 nM; in assay [2], 330 nM; in assay [3] it was 110 nM; in assay [4], 1.2 nM.
